From US7422883

Target: β6 Δ746-764 deletion mutant expressed in SW480 cells (human) (UniProt P06756)
Assay: β6 immunoprecipitation (R6G9) from SW480 transfectants, blot with E10 (FIG. 27B)

β6 Δ746-764 deletion mutant expressed in SW480 cells (human), sequence (chain, as listed by the source mutant, chain 1 of 2): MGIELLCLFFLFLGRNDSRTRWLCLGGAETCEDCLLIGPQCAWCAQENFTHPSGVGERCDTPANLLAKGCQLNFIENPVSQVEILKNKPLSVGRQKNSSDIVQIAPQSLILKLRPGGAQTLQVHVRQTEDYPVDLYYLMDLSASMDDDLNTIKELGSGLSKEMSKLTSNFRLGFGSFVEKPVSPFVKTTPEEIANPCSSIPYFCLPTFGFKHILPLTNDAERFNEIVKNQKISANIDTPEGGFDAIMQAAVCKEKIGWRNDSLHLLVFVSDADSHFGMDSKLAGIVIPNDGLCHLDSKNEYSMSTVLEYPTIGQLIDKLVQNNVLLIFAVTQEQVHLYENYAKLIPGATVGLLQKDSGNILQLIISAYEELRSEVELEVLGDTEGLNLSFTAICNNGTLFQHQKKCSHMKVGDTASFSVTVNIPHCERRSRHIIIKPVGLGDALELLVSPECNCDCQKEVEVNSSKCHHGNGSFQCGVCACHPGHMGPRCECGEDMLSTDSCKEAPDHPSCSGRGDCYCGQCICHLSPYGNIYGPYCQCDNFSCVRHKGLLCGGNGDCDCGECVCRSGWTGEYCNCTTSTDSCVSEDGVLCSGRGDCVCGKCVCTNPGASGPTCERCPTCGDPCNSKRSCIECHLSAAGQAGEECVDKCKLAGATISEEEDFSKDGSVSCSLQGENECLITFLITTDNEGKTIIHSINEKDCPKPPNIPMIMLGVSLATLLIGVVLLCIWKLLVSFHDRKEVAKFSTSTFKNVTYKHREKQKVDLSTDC
β6 Δ746-764 deletion mutant expressed in SW480 cells (human), sequence (P06756 31-1048, stated change not applied, chain 2 of 2): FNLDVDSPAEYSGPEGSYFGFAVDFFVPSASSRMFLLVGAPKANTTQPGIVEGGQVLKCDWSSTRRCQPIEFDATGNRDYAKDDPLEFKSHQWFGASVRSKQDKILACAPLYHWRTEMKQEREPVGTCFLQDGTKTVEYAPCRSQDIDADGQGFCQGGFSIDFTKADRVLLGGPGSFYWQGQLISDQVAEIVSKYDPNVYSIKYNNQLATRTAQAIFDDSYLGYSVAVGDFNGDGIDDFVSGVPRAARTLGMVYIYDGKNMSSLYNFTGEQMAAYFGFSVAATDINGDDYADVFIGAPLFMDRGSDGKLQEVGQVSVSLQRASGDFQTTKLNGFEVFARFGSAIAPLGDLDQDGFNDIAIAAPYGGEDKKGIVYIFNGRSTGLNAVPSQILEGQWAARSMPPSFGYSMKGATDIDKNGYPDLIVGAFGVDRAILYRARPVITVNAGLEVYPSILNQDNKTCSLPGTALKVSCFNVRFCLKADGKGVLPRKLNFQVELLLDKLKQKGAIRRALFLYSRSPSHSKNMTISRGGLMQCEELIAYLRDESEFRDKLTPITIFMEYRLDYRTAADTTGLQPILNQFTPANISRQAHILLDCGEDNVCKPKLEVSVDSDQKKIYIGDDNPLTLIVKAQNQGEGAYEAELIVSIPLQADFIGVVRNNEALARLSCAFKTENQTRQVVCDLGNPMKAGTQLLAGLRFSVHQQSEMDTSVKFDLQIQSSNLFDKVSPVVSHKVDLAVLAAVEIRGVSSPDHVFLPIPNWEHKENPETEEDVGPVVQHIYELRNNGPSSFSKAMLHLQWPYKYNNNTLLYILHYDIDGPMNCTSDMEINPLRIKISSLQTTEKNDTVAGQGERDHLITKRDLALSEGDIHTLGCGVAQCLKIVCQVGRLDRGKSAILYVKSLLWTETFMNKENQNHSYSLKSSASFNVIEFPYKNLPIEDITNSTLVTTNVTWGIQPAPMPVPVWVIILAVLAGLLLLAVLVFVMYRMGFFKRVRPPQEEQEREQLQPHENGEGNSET

reduction of β6-bound ERK against the wild type receptor: > 75%
Substance: ERK (endogenous ERK1/2, band at the position of ERK2, in lysates of human cell lines) (from UniProt P28482 2-360)
